CN117858904A

Biological target: 人SIRPα抗原 (human signal regulatory protein alpha, proprietary antigen) (human) (UniProt P78324)
Assay: BLI (Octet Red384), SIRPa on AR2G sensor, 50 nM CD47 without antibody as analyte (positive control), 1200 s association

Sequence of UniProt P78324 (P78324 31-370 limits assumed): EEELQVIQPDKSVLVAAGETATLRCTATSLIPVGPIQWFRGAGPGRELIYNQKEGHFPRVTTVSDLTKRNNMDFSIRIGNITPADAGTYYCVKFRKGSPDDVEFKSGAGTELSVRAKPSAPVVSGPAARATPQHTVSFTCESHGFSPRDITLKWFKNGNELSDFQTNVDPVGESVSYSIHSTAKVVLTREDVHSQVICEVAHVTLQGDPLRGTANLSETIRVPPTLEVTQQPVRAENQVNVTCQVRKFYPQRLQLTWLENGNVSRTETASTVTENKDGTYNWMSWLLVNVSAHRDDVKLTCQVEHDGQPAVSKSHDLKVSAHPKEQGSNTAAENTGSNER

For “专有CD47抗原 (proprietary human CD47 antigen of Examples 6 and 7) (from UniProt Q08722 19-139) (receptor)”, which 信号 (response) is on record?
Its 信号 (response) is 0.297 nm.
